{"source": "the RNAGym collection of RNA variant scans (doi:10.1093/molbev/msab373)", "parents": {"B1": {"name": "Azoarcus group I ribozyme (parent)", "chain": "GUGCCUUGCGCCGGGAAACCACGCAAGGGAUGGUGUCAAAUUCGGCGAAACCUAAGCGCCCGCCCGGGCGUAUGGCAACGCCGAGCCAAGCUUCGGCGCCUGCGCCGAUGAAGGUGUAGAGACUAGACGGCACCCACCUAAGGCAAACGCUAUGGUGAAGGCAUAGUCCAGGGAGUGGCGAAAGUCACACAAACCGG"}}, "data": [{"variants_of": "B1", "assay": "reverse-splicing fitness (ratio to wild type); higher = more active; in vitro selection; Mg2+ level not given", "how_it_was_run": "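An in vitro group I ribozyme library with randomized positions was T7-transcribed and gel-purified. In triplicate, 10 pmol RNA in EPPS pH 7.5 was reacted with 50 pmoles of a 30-nt RNA substrate for 1 h at 37 °C across several added MgCl2 levels (1–48 mM), then stopped with EDTA. Products were reverse transcribed from a substrate-complementary primer, PCR-amplified and sequenced (HiSeq 4000). Fitness is a variant's read proportion after selection over that before, normalised to wild type.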", "values": [{"variant": "C82G A111G A120G A145C C169G U176C", "reverse-splicing fitness": 0.0207}, {"variant": "C82G A111G A120G A145G C150A C169U", "reverse-splicing fitness": 0.0102}, {"variant": "C82G A111G A120G A145G C150A C169G", "reverse-splicing fitness": 0.0102}, {"variant": "C82G A111G A120G A145G C150A C169A", "reverse-splicing fitness": 0.0113}, {"variant": "C82G A111G A120G A145C C169U U176G", "reverse-splicing fitness": 0.00427}, {"variant": "C82G A111G A120G A145C C169U U176C", "reverse-splicing fitness": 0.0166}, {"variant": "C82G A111G A120G A145C C169U U176A", "reverse-splicing fitness": 0.0179}, {"variant": "C82G A111G A120C A145U C150A C169U U176C", "reverse-splicing fitness": 0.0136}, {"variant": "C82G A111G A120C A145U C150A C169U U176A", "reverse-splicing fitness": 0.0146}, {"variant": "C82G A111G A120C A145U C150A C169U U176G", "reverse-splicing fitness": 0.00626}, {"variant": "C82G A111G A120G A145G C150U C169G", "reverse-splicing fitness": 0.0181}, {"variant": "C82G A111G A120G A145G C150U C169A", "reverse-splicing fitness": 0.0144}, {"variant": "C82G A111G A120G A145G C150U C169U", "reverse-splicing fitness": 0.0141}, {"variant": "C82G A111G A120C C150G C169U U176G", "reverse-splicing fitness": 0.0076}, {"variant": "C82G A111G A120C C150G C169U U176A", "reverse-splicing fitness": 0.00806}, {"variant": "C82G A111G A120C C150G C169U U176C", "reverse-splicing fitness": 0.0135}, {"variant": "C82G A111G A120G A145C C150A C169A U176A", "reverse-splicing fitness": 0.0139}, {"variant": "C82G A111G A120G A145C C150A C169A U176G", "reverse-splicing fitness": 0.00537}, {"variant": "C82G A111G A120G A145C C150A C169A U176C", "reverse-splicing fitness": 0.00767}, {"variant": "C82G A111G A120C A145U C150U U176C", "reverse-splicing fitness": 0.0348}, {"variant": "C82G A111G A120C A145U C150U U176G", "reverse-splicing fitness": 0.00869}, {"variant": "C82G A111G A120C A145U C150U U176A", "reverse-splicing fitness": 0.0202}, {"variant": "C82G A111G A120G A145G C169A U176A", "reverse-splicing fitness": 0.0166}, {"variant": "C82G A111G A120G A145G C169A U176G", "reverse-splicing fitness": 0.00443}, {"variant": "C82G A111G A120G A145G C169A U176C", "reverse-splicing fitness": 0.0235}, {"variant": "C82G A111G A120G A145C C150A C169U U176G", "reverse-splicing fitness": 0.00551}, {"variant": "C82G A111G A120G A145C C150A C169U U176A", "reverse-splicing fitness": 0.021}, {"variant": "C82G A111G A120G A145C C150A C169U U176C", "reverse-splicing fitness": 0.0128}, {"variant": "C82G A111G A120C A145G C150U C169A U176G", "reverse-splicing fitness": 0.00689}, {"variant": "C82G A111G A120C A145G C150U C169A U176C", "reverse-splicing fitness": 0.0173}, {"variant": "C82G A111G A120C A145G C150U C169A U176A", "reverse-splicing fitness": 0.0156}, {"variant": "C82G A111G A120C A145G C169G U176A", "reverse-splicing fitness": 0.0158}, {"variant": "C82G A111G A120C A145G C169G U176G", "reverse-splicing fitness": 0.00476}, {"variant": "C82G A111G A120C A145G C169G U176C", "reverse-splicing fitness": 0.0188}, {"variant": "C82G A111G A120C A145G C169U U176G", "reverse-splicing fitness": 0.00492}, {"variant": "C82G A111G A120C A145G C169U U176A", "reverse-splicing fitness": 0.0142}, {"variant": "C82G A111G A120C A145G C169U U176C", "reverse-splicing fitness": 0.0147}, {"variant": "C82G A111G A120C A145G C150G", "reverse-splicing fitness": 0.0123}, {"variant": "C82G A111G A120C A145G C150U", "reverse-splicing fitness": 0.0625}, {"variant": "C82G A111G A120C A145G C150A", "reverse-splicing fitness": 0.0184}, {"variant": "C82G A111G A120C A145U C150U C169U U176G", "reverse-splicing fitness": 0.00591}, {"variant": "C82G A111G A120C A145U C150U C169U U176A", "reverse-splicing fitness": 0.0143}, {"variant": "C82G A111G A120C A145U C150U C169U U176C", "reverse-splicing fitness": 0.0143}, {"variant": "C82G A111G A120G A145G C169U U176G", "reverse-splicing fitness": 0.00529}, {"variant": "C82G A111G A120G A145G C169U U176C", "reverse-splicing fitness": 0.019}, {"variant": "C82G A111G A120G A145G C169U U176A", "reverse-splicing fitness": 0.0188}, {"variant": "C82G A111G A120G A145G C150A C169A U176C", "reverse-splicing fitness": 0.0231}, {"variant": "C82G A111G A120G A145G C150A C169A U176G", "reverse-splicing fitness": 0.00774}, {"variant": "C82G A111G A120G A145G C150A C169A U176A", "reverse-splicing fitness": 0.0204}, {"variant": "C82G A111G A120G", "reverse-splicing fitness": 0.0208}, {"variant": "C82G A111G A120G A145G C150G C169G U176G", "reverse-splicing fitness": 0.0063}, {"variant": "C82G A111G A120G A145G C150G C169G U176A", "reverse-splicing fitness": 0.0111}, {"variant": "C82G A111G A120G A145G C150G C169G U176C", "reverse-splicing fitness": 0.0118}, {"variant": "C82G A111G A120C U176C", "reverse-splicing fitness": 0.045}, {"variant": "C82G A111G A120C U176A", "reverse-splicing fitness": 0.0255}, {"variant": "C82G A111G A120C U176G", "reverse-splicing fitness": 0.011}, {"variant": "C82G A111G A120C A145G C150A C169G U176G", "reverse-splicing fitness": 0.00696}, {"variant": "C82G A111G A120C A145G C150A C169G U176A", "reverse-splicing fitness": 0.02}, {"variant": "C82G A111G A120C A145G C150A C169G U176C", "reverse-splicing fitness": 0.0237}, {"variant": "C82G A111G A120C C169U U176C", "reverse-splicing fitness": 0.0134}, {"variant": "C82G A111G A120C C169U U176G", "reverse-splicing fitness": 0.00596}, {"variant": "C82G A111G A120C C169U U176A", "reverse-splicing fitness": 0.0138}, {"variant": "C82G A111G A120C A145C C169G U176A", "reverse-splicing fitness": 0.0254}, {"variant": "C82G A111G A120C A145C C169G U176C", "reverse-splicing fitness": 0.0182}, {"variant": "C82G A111G A120C A145C C169G U176G", "reverse-splicing fitness": 0.0055}, {"variant": "C82G A111G A120C A145U C169A U176A", "reverse-splicing fitness": 0.0147}, {"variant": "C82G A111G A120C A145U C169A U176C", "reverse-splicing fitness": 0.0149}, {"variant": "C82G A111G A120C A145U C169A U176G", "reverse-splicing fitness": 0.00508}, {"variant": "C82G A111G A120C C150G C169G U176A", "reverse-splicing fitness": 0.00929}, {"variant": "C82G A111G A120C C150G C169G U176C", "reverse-splicing fitness": 0.0117}, {"variant": "C82G A111G A120C C150G C169G U176G", "reverse-splicing fitness": 0.00647}, {"variant": "C82G A111G A120C A145G C150A U176A", "reverse-splicing fitness": 0.0144}, {"variant": "C82G A111G A120C A145G C150A U176C", "reverse-splicing fitness": 0.0254}, {"variant": "C82G A111G A120C A145G C150A U176G", "reverse-splicing fitness": 0.0119}, {"variant": "C82G A111G A120G A145C C150G C169A U176G", "reverse-splicing fitness": 0.00562}, {"variant": "C82G A111G A120G A145C C150G C169A U176A", "reverse-splicing fitness": 0.0102}, {"variant": "C82G A111G A120G A145C C150G C169A U176C", "reverse-splicing fitness": 0.009}, {"variant": "C82G A111G A120C A145U C150G C169G U176C", "reverse-splicing fitness": 0.0102}, {"variant": "C82G A111G A120C A145U C150G C169G U176A", "reverse-splicing fitness": 0.00957}, {"variant": "C82G A111G A120C A145U C150G C169G U176G", "reverse-splicing fitness": 0.00515}, {"variant": "C82G A111G A120C C150U C169A U176C", "reverse-splicing fitness": 0.0182}, {"variant": "C82G A111G A120C C150U C169A U176G", "reverse-splicing fitness": 0.00693}, {"variant": "C82G A111G A120C C150U C169A U176A", "reverse-splicing fitness": 0.0199}]}]}
